# Measurements as given in patent publication US20050255555A1.
# Experiments:
# [1] = molecular target: EGFR 273-621 E293K, yeast surface displayed (yeast; human); test: titration on yeast surface, flow cytometry
# [2] = molecular target: wt-EGFR, FLAG-tagged full-length human EGFR on BaF/3 cells (human) (UniProt P00533); test: FACS on wtEGFR-BaF/3 cells, 10 µg/ml antibody
# [3] = molecular target: wild-type EGFR 273-621, yeast surface displayed (Example 3) (yeast; human); test: titration on yeast displaying EGFR 273-621, flow cytometry, three data sets
# [4] = molecular target: EGFR 273-621 C287R, yeast surface displayed (yeast; human); test: from the titrations on yeast surface
# [5] = molecular target: EGFR 273-621 E293K, yeast surface displayed (yeast; human); test: from the titrations on yeast surface
# [6] = molecular target: EGFR 273-621 C287R, yeast surface displayed (yeast; human); test: titration on yeast surface, flow cytometry, global fit of three data sets
# [7] = molecular target: wild-type EGFR 273-621, yeast surface displayed (Example 3) (yeast; human); test: as above
# [8] = molecular target: wt-EGFR, FLAG-tagged full-length human EGFR on BaF/3 cells (human) (UniProt P00533); test: FACS on wtEGFR-BaF/3 cells, median fluorescence against mock preincubation
# [9] = molecular target: EGFR 273-621 C287R, yeast surface displayed (yeast; human); test: titration on yeast displaying EGFR 273-621 C287R, flow cytometry, three data sets
# [10] = molecular target: monoclonal antibody 806; test: competition ELISA: peptide in solution against mAb […] binding to plate-coated 1-501 EGFR fragment
# monoclonal antibody 806, sequence (VH): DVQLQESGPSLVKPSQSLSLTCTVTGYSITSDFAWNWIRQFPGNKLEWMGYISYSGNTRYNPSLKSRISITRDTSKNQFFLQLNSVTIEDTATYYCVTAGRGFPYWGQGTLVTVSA
# monoclonal antibody 806, sequence (VL): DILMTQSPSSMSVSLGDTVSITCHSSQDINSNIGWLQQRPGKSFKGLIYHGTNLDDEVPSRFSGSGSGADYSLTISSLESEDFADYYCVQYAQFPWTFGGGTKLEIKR
Kd [1] [nM],median fluorescence after mock preincubation [2],EC50 (read off the curve) [3] [nM],ΔΔG compared to wild-type [4] [kcal/mol],ΔΔG compared to wild-type [5] [kcal/mol],Kd [6] [nM],Kd [7] [nM],change (%) in antibody reactivity after preincubation with EGF [8] [%],change (%) in antibody reactivity after preincubation with mAb[…] [8] [%],EC50 (read off the curve) [9] [nM],IC50 (read off the curve) [10] [µg/mL],Molecule
> 30000,7,2,2.4,5.7,127,2.13,-48,163,100,–,monoclonal antibody 806
–,112,–,–,–,–,–,-23,-3,–,–,monoclonal antibody 528
–,–,–,–,–,–,–,–,–,–,3,CGADSYEMEEDGVRKC [287-302 EGFR peptide (287…302)]
